# Experiments:
# MS2 coat protein [1] = assay: apparent KD of MS2 coat protein, switch ON state; designed switch direction (-1 OFF switch, 1 ON switch): -1; higher = weaker reporter binding; details: FMN input: 0 or 200 uM; Eterna round: R93 (includes R88 designs)
# Method in brief: (§1)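 Apparent KD stands for the median, per design, of fits to normalised cluster binding curves. The curves came from titrating on-chip-transcribed RNA switches on Illumina sequencing clusters with SNAP-549-labelled MS2 coat protein, twofold from 0.7 or 1.5 nM to 3 µM. Buffer was 100 mM Tris-HCl pH 7.5, 80 mM KCl, 4 mM MgCl2, without or with constant ligand.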
# MS2 coat protein [2] = assay: apparent KD of MS2 coat protein, switch OFF state (with FMN for OFF switches, without FMN for ON switches); designed switch direction (-1 OFF switch, 1 ON switch): -1; higher = weaker reporter binding; details: FMN input: 0 or 200 uM; Eterna round: R93 (includes R88 designs)
# Method in brief: as §1
Sequence,apparent KD of MS2 coat protein (MS2 coat protein [1]),apparent KD of MS2 coat protein (MS2 coat protein [2])
GAAAAGGCAGGAUAUGCAAGGAUAUAGAAGGAAAAAAAAAAACAUGAGGAUCACCCAUGUAGAAGGGCCAAAAG [salish99-ex2-10],57.2 nM,33.5 nM
AGAAAACAUGAGGAUCACCCAUGUGAGGAUAUCGAUGUCCAAAAAAAAGUGCGGGACUCGAGAAGGCACUUGGG,38.9 nM,33.7 nM
AAGAAGGUAGGAUAUACUAAAGAAAUAAAAAUAAAUAAAGAACAUGAGGAUCACCCAUGUAGAAGGGCCAAGAA [Merkheperre],54.4 nM,50.8 nM
AAAAAGGCAGGAUAUGCAUACCCACGGAAAAAAAGGCUGGGACAUGAGGAUCACCCAUGUAGAAGGGCCAAAAA [Dora Explored 12 - Jieux - Exclusion 2],21.5 nM,14.5 nM
AACAGACAUGAGGAUCACCCAUGUAAGGAUAUCCCAAACGAUAAAACAAGAAUGACAAGGAGAAGGUGCAGCAA [JR_Exc001_Sub006],62.8 nM,50.8 nM
CUCUUGUCAGGAUAUCCAAGAAAAGAAAAGAAAGAAAAGAAGGAGAAGGGACAUGAGGAUCACCCAUGUAAGAA [EteRNA is fun!],72.3 nM,113 nM
AAAGAUACAGGAUAUACAUGAGGAUCACCCAUGUGGAAUCAAAAAUGGGAAAAAGAAAGUAGAAGGGUAUAAAA [Ex 3 May 38],30.6 nM,87.3 nM
"AAAAAACAUGAGGAUCACCCAUGUAAGGAUAUGCGAAAAUAAAAUAAAAUAAAAUAAAGCAGAAGGUACAAAAA [66%, Wbt, 1]",32.6 nM,37.7 nM
AACGCGUCAGGAUAUAGCAUAAAUUACGUAGUACGACCAUACUAGAAGGGACAUGAGGAUCACCCAUGUGGGUA [JR_Exc004_Sub207],167 nM,90.4 nM
AAAAAGUCAGGAUAUACAUGAGGAUCACCCAUGUAGCAUACGAAAAAGAGUGUGCAGUGUAGAAGGGACAAAAA [Exclusion3-cac3],19.5 nM,21.2 nM
ACUAAACGAGGAUAUACUAACGAACCUCAAACAUAGAUAAGACAUGAGGAUCACCCAUGUAGAAGGCGUAGACU [JR_Exc002_Sub008],74.6 nM,59.7 nM
AGCAAACAUGAGGAUCACCCAUGUUAGGAUAUGAACGAAAUAAAAUAAAAAUAAAAGUUCAGAAGGGACGAGCA [Mat - Exclusion 1 - Eli mod - D27],22.4 nM,37.1 nM
AUUAUGUCAGGAUAUCAGUAGUAAAAAAAAAAAAUUACUACUGAGAAGGGACAUGAGGAUCACCCAUGUCAAAA [EX4 308: Super Stable 8],39 nM,34 nM
AAAAAAAGAGGAUAUACGUACAUGUCGAAAGACGUGAAGGGACAUGAGGAUCACCCAUGUAGAAGGUUUAAAAA [Mat - Exclusion 2 - JL mod - D84],33.8 nM,15.8 nM
AAAAAGUGAGGAUAUACAUGAGGAUCACCCAUGUGUUAAAAAAAAAGGGUGGAAGAAAGUAGAAGGCACCAAAA [Ex 3 May 50],33.7 nM,22.9 nM
AAAAAGGCAGGAUAUGCAUACCCACGGAAAAAAAGGUUGGGACAUGAGGAUCACCCAUGUAGAAGGGCCAAAAA [Dora Explored 13 - Jieux - Exclusion 2],43.4 nM,22.4 nM
GGAAAGCAAGGAUAUACAAACAAACAAACAAACAAAAGGGAACAUGAGGAUCACCCAUGUAGAAGGUGCAAACA [Exclusion 2 XX],41 nM,31.8 nM
GUCAGCUGAGGAUAUACAGGUGAUGCCGCAUAACAAAAUAUACAUGAGGAUCACCCAUGUAGAAGGCGGAAGAC [Zalaa],73.4 nM,20.2 nM
AACAGUACAGGAUAUACAUGAGGAUCACCCAUGUAGAGAGAAUAAAACAAAAAUAAAUGUAGAAGGGUACUGAA [Mat - Exclusion 3 - Eli mod - D68],24.5 nM,25.5 nM
AAGAACAGAGGAUAUACAUGAGGAUCACCCAUGUAAAAGAAAGAAAAGGGAAAGAAAAGUAGAAGGCUGAAGAA [Ankhkheperure Smenkhkare],22.9 nM,42.8 nM
AGCUAGUCAGGAUAUACGAACAUGUCAAAAGACGUGAGGGAACAUGAGGAUCACCCAUGUAGAAGGGACUAGCA [Moving G segment in JL's topscorer (74%)],36.6 nM,37.5 nM
AUGUACCUAGGAUAUACAUGAGGAUCACCCAUGUACUGGGAGCAAUCAAGUUAAUAUUGUAGAAGGAGGUGAAA [JR_Exc003_Sub315],20.1 nM,58.6 nM
AACCCGCUAGGAUAUACAGCAGGGAUUCGAAAACCCACGAAACAUGAGGAUCACCCAUGUAGAAGGAGUAGGGA [Bereatenat],22.7 nM,21.1 nM

Sequence,apparent KD of MS2 coat protein (MS2 coat protein [1]),apparent KD of MS2 coat protein (MS2 coat protein [2])
AGCUAGUCAGGAUAUACGAGAAUGACAAAAGACGUGAAGGGACAUGAGGAUCACCCAUGUAGAAGGGACUAGCA [Diamond 24],39.2 nM,117 nM
GAAUGACUAGGAUAUACAUGAGGAUCACCCAUGUGUAUAAAUAAAUACACAAAAGAAAGUAGAAGGAGUCAAAG [Mat - Exclusion 3 - Mayanna mod - D124],20.8 nM,83.2 nM
AACAGUACAGGAUAUACAUGAGGAUCACCCAUGUGAAAAUUAAGUGGCGUACCACAGUGUAGAAGGGUACUGGA [Moding Maslow Revisited (73) 25],87.9 nM,62.7 nM
GAAAAGUUAGGAUAUACAGAUAAAAAAACGAAAAAAAAUCUGUAGAAGGAACAUGAGGAUCACCCAUGUAAAAG [Mat - Exclusion 4 - Mayanna - D103],34.7 nM,30.8 nM
AAGAAGUAAGGAUAUCGGAGAGAACAAGAAAGUGAAGAAUACGAGAAGGUACAUGAGGAUCACCCAUGUAAAGA [EXC - 4],26.9 nM,19 nM
AGGGAGUAAGGAUAUGCAUAUAAUGAAGAGAAAGAAAAGAAGCAGAAGGUACAUGAGGAUCACCCAUGUAAAAA [milkweed 2],28.4 nM,22.7 nM
AUAAAACAUGAGGAUCACCCAUGUGAGGAUAUCCUAAAAGAAAGAAAAAAAAAAAAAUGGAGAAGGCACAAUAA [Amethyst 47],119 nM,159 nM
GGAAAACAUGAGGAUCACCCAUGUGAGGAUAUCGAUGUCCAAACCAAAGUGCGGGACUCGAGAAGGCACUUGGA [salish99-ex1-37],45.9 nM,28.6 nM
AAAACGGUAGGAUAUACGAUUGGGAACUAGACCGAGGAACCACAUGAGGAUCACCCAUGUAGAAGGGCCAAAAA [Ex2 Malc#14],16.9 nM,16.7 nM
AAAGGACGAGGAUAUACAUGAGGAUCACCCAUGUAAAAAGCGUAAUAAAAGAACUUAUGUAGAAGGCGUCCAAA [Meechl Ex3 2 R2 v1],45 nM,66.8 nM
AAUAGUGAAGGAUAUACUGGAGGAGUACGAUAAAAGAAAGAACAUGAGGAUCACCCAUGUAGAAGGUCAGAAGU [JR_Exc002_Sub1227],22.9 nM,24.1 nM
AACAGUACAGGAUAUACAUGAGGAUCACCCAUGUGAAAAUUAAGUGGCGAACCACAAUGUAGAAGGGUACUGGA [Mat - Exclusion 3 - Eli mod - D47],81.9 nM,25.9 nM
AAAAAUAGAGGAUAUACAUGAAAAAAAAAAAAAAAAAAAAAACAUGAGGAUCACCCAUGUAGAAGGCUAAAAAA [double AU!],30.8 nM,29.2 nM
AAAGGACGAGGAUAUACAUGAGGAUCACCCAUGUAAAAAACAUAAUAAAAGAACUUGUGUAGAAGGCGUCCAAA [Meechl Ex3 2 R2 v6],93 nM,335 nM
AAAAAAAAAGGAUAUACAGGAGGUAAGGUCGAAAAAAAAAAACAUGAGGAUCACCCAUGUAGAAGGUUUAAAAA [Excls2-VIII],27 nM,30.6 nM
AAAAAUCGAGGAUAUACAUGAGGAUCACCCAUGUCAAAAAAUGACUACACAAAAGAAAGUAGAAGGCGAUAAAA [Ex 3 May 17],28.5 nM,31 nM
AAAUAACAUGAGGAUCACCCAUGUUAGGAUAUCUAAAUGGUGUAAACACCAGAAGAUGAGAGAAGGGACGUGGA [Enlalees],17.9 nM,25.1 nM
AUAAAACAUGAGGAUCACCCAUGUGAGGAUAUGCUAAAAUAAAAUAAAAUAAAAUAAUGCAGAAGGCACAAAUA [Fancy Pants],37.6 nM,53.8 nM
AAGGUAUAAGGAUAUGCAUAGAUACAGACACAUGUUCAAGUACAUGAGGAUCACCCAUGUAGAAGGUAUAUAUA [AJ 12],32.2 nM,26 nM
GCUGGCGUAGGAUAUACAUGAGGAUCACCCAUGUGAGAGAAAAAAGUGAGAAAGAAAAGUAGAAGGACGUUAGG [salish99-ex3-116],40.4 nM,106 nM
AAAAAGUCAGGAUAUGCGAAGGCGUCUGAUAGACGAGGCUAGCAGAAGGGACAUGAGGAUCACCCAUGUAAAGA [Mat - Exclusion 4 - D82],50 nM,51.3 nM
AAGAAACAUGAGGAUCACCCAUGUGAGGAUAUGCAAGAAAGAAAGAAAGAAAGAAGAAGCAGAAGGCACAAAGG [Gaius Turranius],42.4 nM,65.9 nM

# Reference: the supplement of paper PMC9170038
